The subject of one series is MOAG-4 (C. elegans). As to the kind of experiment: fluorescence anisotropy.
Series [1] deals with T1, Atto550-SERF1a (human), O75920-2.
T1 sequence: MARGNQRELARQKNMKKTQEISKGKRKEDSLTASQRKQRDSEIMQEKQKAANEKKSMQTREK
The experiment in a line: fluorescence anisotropy.

In the series with MOAG-4 (C. elegans), ACUGCUAGAGAUUUUCCACAU [Cy3-R21(-)] showed a dissociation constant (Kd) of 4.79 µM.
tRNA (type X-SA) returned a Kd in series [1] of 1.1 µM.

Values taken from paper doi:10.1101/713511.
